Measured values from patent EP1947117A2 (THE UNITED STATES GOVERNMENT as represented by THE …, dated 2008).

Key:
[1] = target: hCG receptor on MA-10 cells (transformed murine Leydig cells) (murine, UniProt P30730 27-700); assay: cell-based or functional assay
[2] = target: human TSH receptor on CHO cells (CHO-hTSHR clone JP09) (human, UniProt P16473 21-764); assay: cell-based or functional assay

Sequence of hCG receptor on MA-10 cells (transformed murine Leydig cells) (P30730 27-700): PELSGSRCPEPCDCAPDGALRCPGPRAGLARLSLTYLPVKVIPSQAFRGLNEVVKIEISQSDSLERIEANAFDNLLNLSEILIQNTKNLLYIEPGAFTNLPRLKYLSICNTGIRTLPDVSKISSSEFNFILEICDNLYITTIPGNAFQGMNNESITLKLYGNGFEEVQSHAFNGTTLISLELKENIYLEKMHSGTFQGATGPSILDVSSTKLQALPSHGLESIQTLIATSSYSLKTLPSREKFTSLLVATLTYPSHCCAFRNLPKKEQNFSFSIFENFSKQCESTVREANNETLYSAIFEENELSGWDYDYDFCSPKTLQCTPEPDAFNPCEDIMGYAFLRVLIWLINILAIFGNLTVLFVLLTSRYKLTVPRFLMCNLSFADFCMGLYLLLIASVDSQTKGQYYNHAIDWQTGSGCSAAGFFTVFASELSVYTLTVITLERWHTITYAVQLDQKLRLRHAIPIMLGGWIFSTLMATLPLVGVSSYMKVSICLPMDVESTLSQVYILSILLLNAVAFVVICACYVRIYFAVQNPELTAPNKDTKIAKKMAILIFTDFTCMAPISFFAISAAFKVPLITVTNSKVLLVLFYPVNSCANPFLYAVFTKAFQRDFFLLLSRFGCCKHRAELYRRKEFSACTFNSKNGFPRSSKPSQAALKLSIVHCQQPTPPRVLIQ

Row | Binder | Progesterone synthesis in MA 10 cells, EC50 [1] | cAMP stimulation in JP09 cells, EC50 [2] | cAMP stimulation in JP09 cells, relative potency (WT=1) [2]
1 | WT-hCG (wild-type recombinant human chorionic gonadotropin) (ligand) chain 1: not shown chain 2: SKEPLRPRCRPINATLAVEKEGCPVCITVNTTICAGYCPTMTRVLQGVLPALPQVVCNYRDVRFESIRLPGCPRGVNPVVSYAVALSCQCALCRRSTTDCGGPKDHPLTCDDPRFQDSSSSKAPPPSLPSPSRLPGPSDTPILPQ | 6.9 ng/mL | – | –
2 | WT-hTSH (wild-type recombinant human thyroid stimulating hormone) (ligand) chain 1: not shown chain 2: FCIPTEYTMHIERRECAYCLTINTTICAGYCMTRDINGKLFLPKYALSQDVCTYRDFIYRTVEIPGCPLHVAPYFSYPVALSCKCGKCNTDYSDCIHEAIKTNYCTKPQKSY | – | 6.7 ng/mL | 1 fold (WT=1)
